# Source: US20230265217A1 (TWIST BIOSCIENCE, published 2023)
# Key:
# Experiment in all cases: Carterra SPR
# [1] = biological target: T1, Antibody 178-10_His CA_W152C_L452R_D614G (27081) (SARS-CoV-2, UniProt P0DTC2 14-685)
# T1 construct: domain: S1; also called CA variant S1; California variant S1
# [2] = biological target: T2, Antibody 178-09_His B.1.1.7 (27080) (SARS-CoV-2, UniProt P0DTC2 14-685)
# T2 construct: domain: S1; also called TB178-9
# [3] = biological target: T3, Antibody 178-08_His 501.V2 (27079) (SARS-CoV-2, UniProt P0DTC2 14-685)
# T3 construct: domain: S1; also called TB178-8
# [4] = biological target: T4, S1 RBD L452R E484Q (Acro) (SARS-CoV-2, UniProt P0DTC2 319-537)
# T4 construct: domain: S1 RBD; also called SARS-COV-2 RBD India Var; L452R E484Q S1; India variant mutation L452R E484Q
Binder,binding result [1],Kd [2],binding result [3],binding result [4],binding result [2],Kd [1]
"7-29 (VHH, not shown: a dimerising Fc or GST) VHH: EVQLVESGGGLVQPGGSLRLSCAASGRTHSIYPMGWFRQAPGKEREFVASITSYGDTNYADSVKGRFTISADNSKNTAYLQMNSLKPEDTAVYYCAARRWIPPGPIWGQGTLVTVSS",no binding,54.8 nM,no binding,no binding,–,–
7-8 (VHH) VHH: EVQLVESGGGLVQPGGSLRLSCAASGSTFTINAMGWFRQAPGKEREFVSGISHNGGTTNYADSVKGRFTISADNSKNTAYLQMNSLKPEDTAVYYCAADGVPEYSDYASGPVWGQGTLVTVSS,no binding,–,no binding,no binding,no binding,–
"8-06 (VHH, not shown: a dimerising Fc or GST, also called 8-6) VHH: EVQLVESGGGLVQPGGSLRLSCAASGFTFDYYAMGWFRQAPGKEREFVSAIDSEGRTSYADSVKGRFTISADNSKNTAYLQMNSLKPEDTAVYYCARWGPFDIWGQGTLVTVSS",no binding,141 nM,no binding,–,–,–
"7-31 (VHH, not shown: a dimerising Fc or GST) VHH: EVQLVESGGGLVQPGGSLRLSCAASGFTFSNYSMGWFRQAPGKEREFVAAIHWNGDSTAYADSVKGRFTISADNSKNTAYLQMNSLKPEDTAVYYCAAQTEDSAQYIWGQGTLVTVSS",no binding,388 nM,no binding,no binding,–,–
7-21 (VHH) VHH: EVQLVESGGGLVQPGGSLRLSCAASGRTISRYTMGWFRQAPGKEREFVASITSGGSTAYADSVKGRFTISADNSKNTAYLQMNSLKPEDTAVYYCAKEDVGKPFDWGQGTLVTVSS,–,35.6 nM,no binding,no binding,–,277 nM
"7-22 (VHH, not shown: a dimerising Fc or GST) VHH: EVQLVESGGGLVQPGGSLRLSCAASGRTITRYTMGWFRQAPGKEREFVASITSGGSTAYADSVKGRFTISADNSKNTAYLQMNSLKPEDTAVYYCAKQDVGKPFDWGQGTLVTVSS",–,41.7 nM,no binding,no binding,–,698 nM
"8-10 (VHH, not shown: a dimerising Fc or GST) VHH: EVQLVESGGGLVQPGGSLRLSCAASGFIGNYHAMGWFRQAPGKEREFVAAVTWSGGTTNYADSVKGRFTISADNSKNTAYLQMNSLKPEDTAVYYCAREGYYYDSSGYPYYFDYWGQGTLVTVSS",no binding,377 nM,no binding,–,–,–
7-32 (VHH) VHH: EVQLVESGGGLVQPGGSLRLSCAASGSTFSVNAMGWFRQAPGKEREFVAGVTRGGYTNYADSVKGRFTISADNSKNTAYLQMNSLKPEDTAVYYCAADGVPEYSDYASGPVWGQGTLVTVSS,no binding,62.4 nM,no binding,no binding,–,–
"7-17 (VHH, not shown: a dimerising Fc or GST) VHH: EVQLVESGGGLVQPGGSLRLSCAASGFSLDYYGMGWFRQAPGKEREFVAAITSGGTPHYADSVKGRFTISADNSKNTAYLQMNSLKPEDTAVYYCASAYNPGIGYDWGQGTLVTVSS",no binding,39.8 nM,no binding,–,–,–
"7-6 (VHH, not shown: a dimerising Fc or GST) VHH: EVQLVESGGGLVQPGGSLRLSCAASGRIFYPMGWFRQAPGKEREFVAAVRWSSTGIYYTQYADSVKGRFTISADNSKNTAYLQMNSLKPEDTAVYYCAAALSEVWRGSENLREGYDWGQGTLVTVSS",no binding,42.4 nM,no binding,no binding,–,–
